Measured values reported in publication PMC9352546, “The Casein kinase 1α agonist pyrvinium attenuates Wnt-mediated CK1α degradation via interaction with the E3 ubiquitin ligase component Cereblon” (The Journal of Biological Chemistry, 2022).

Biological target: T1, FLAG-tagged Cereblon (CRBN) (human, UniProt Q96SW2-2 1-441)
T1 construct: also called FLAG-CRBN; Wnt-modulated CRBN; source: HEK293T, transfected (pcDNA3.1(+)), cells treated with PBS or Wnt3a, immunopurified from lysate on beads
Assay: pull-down; FLAG-CRBN immunopurified from PBS- or Wnt3a-treated (4 h) HEK293T cells, held on BSA-blocked beads; GST-CK1α preincubated with DMSO or pyrvinium at 4 °C for 10 min, then incubated with the beads in binding buffer at 4 °C for 1 h; one 5-min wash; elution in Laemmli buffer, immunoblot
Settings: both partners purified

T1 sequence (Q96SW2 other isoform, or with tags, fused parts or gaps): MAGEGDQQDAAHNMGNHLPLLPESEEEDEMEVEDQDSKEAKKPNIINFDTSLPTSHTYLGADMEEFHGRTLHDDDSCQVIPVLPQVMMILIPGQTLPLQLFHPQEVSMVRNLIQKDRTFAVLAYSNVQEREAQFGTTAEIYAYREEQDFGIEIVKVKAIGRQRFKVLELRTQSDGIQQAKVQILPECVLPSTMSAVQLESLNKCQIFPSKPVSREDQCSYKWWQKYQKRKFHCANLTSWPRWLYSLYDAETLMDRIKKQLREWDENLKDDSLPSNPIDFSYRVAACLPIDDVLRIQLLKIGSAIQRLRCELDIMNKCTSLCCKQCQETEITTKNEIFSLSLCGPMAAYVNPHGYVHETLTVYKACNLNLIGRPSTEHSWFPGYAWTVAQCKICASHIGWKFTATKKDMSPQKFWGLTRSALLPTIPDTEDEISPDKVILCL

- binding result: binds
B1: Recombinant human glutathione-S-transferase (GST)-CK1α protein (natural protein, UniProt P48729-1 1-337, looked up)
chain: MASSSGSKAEFIVGGKYKLVRKIGSGSFGDIYLAINITNGEEVAVKLESQKARHPQLLYESKLYKILQGGVGIPHIRWYGQEKDYNVLVMDLLGPSLEDLFNFCSRRFTMKTVLMLADQMISRIEYVHTKNFIHRDIKPDNFLMGIGRHCNKLFLIDFGLAKKYRDNRTRQHIPYREDKNLTGTARYASINAHLGIEQSRRDDMESLGYVLMYFNRTSLPWQGLKAATKKQKYEKISEKKMSTPVEVLCKGFPAEFAMYLNYCRGLRFEEAPDYMYLRQLFRILFRTLNHQYDYTFDWTMLKQKAAQQAASSSGQGQQAQTPTGKQTDKTKSNMKGF
notes: Preincubated with DMSO or pyrvinium before it was added to the FLAG-CRBN beads; also called GST-tagged CK1α; recombinant CK1α; source: Sf9 insect cells, purified (GenScript)
